T1: Streptomyces Subtilisin Inhibitor (SSI), SSI-like protein produced by PG1181
T1 chain: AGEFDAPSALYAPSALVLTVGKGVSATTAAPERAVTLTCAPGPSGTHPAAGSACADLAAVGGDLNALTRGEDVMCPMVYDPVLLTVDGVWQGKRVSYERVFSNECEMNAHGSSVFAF


Legend:
[1] = target: T1, Streptomyces Subtilisin Inhibitor …
[2] = target: protease (not named in the Ki determination); assay: enzyme inhibition kinetics with succinyl-Ala-Ala-Pro-Phe-p-nitroanilide in 50 mM Tris pH 8; steady-state rate against the rate without inhibitor; equations of Goldstein

Row | Binder | protease activity (hydrolysis of N-succinyl-Ala-Ala-Pro-Phe-p-nitroanilide, increase in absorbance at 410 nm) [1] | Ki [2] [nM]
1 | subtilisin BPN′ (protein) AQSVPYGVSQIKAPALHSQGYTGSNVKVAVIDSGIDSSHPDLKVAGGASMVPSETNPFQDNNSHGTHVAGTVAALNNSIGVLGVAPSASLYAVKVLGADGSGQYSWIINGIEWAIANNMDVINMSLGGPSGSAALKAAVDKAVASGVVVVAAAGNEGTSGSSSTVGYPGKYPSVIAVGAVDSSNQRASFSSVGPELDVMAPGVSIQSTLPGNKYGAYNGTSMASPHVAGAAALILSKHPNWTNTQVRSSLENTTTKLGDSFYYGKGLINVQAAAQ | SSI inhibits subtilisin BPN′ and a Y217L variant of BPN′ | –
2 | Y217L variant of subtilisin BPN′ (protein) AQSVPYGVSQIKAPALHSQGYTGSNVKVAVIDSGIDSSHPDLKVAGGASMVPSETNPFQDNNSHGTHVAGTVAALNNSIGVLGVAPSASLYAVKVLGADGSGQYSWIINGIEWAIANNMDVINMSLGGPSGSAALKAAVDKAVASGVVVVAAAGNEGTSGSSSTVGYPGKYPSVIAVGAVDSSNQRASFSSVGPELDVMAPGVSIQSTLPGNKYGALNGTSMASPHVAGAAALILSKHPNWTNTQVRSSLENTTTKLGDSFYYGKGLINVQAAAQ | SSI inhibits subtilisin BPN′ and a Y217L variant of BPN′ | –
3 | M73P D83C SSI (protein) AGEFDAPSALYAPSALVLTVGKGVSATTAAPERAVTLTCAPGPSGTHPAAGSACADLAAVGGDLNALTRGEDVMCPPVYDPVLLTVCGVWQGKRVSYERVFSNECEMNAHGSSVFAF | – | 3

Reference: patent US6579698
